# Data: patent US7157224B2, “Screening and use of agents which block or activate intein splicing utilizing natural or homologous exteins” (priority 1992, dated 2007)
# Molecular target: T1, Mtu DnaB intein (IVPS) (Mycobacterium tuberculosis, UniProt P9WMR3)
# T1 sequence (P9WMR3 whole entry, looked up): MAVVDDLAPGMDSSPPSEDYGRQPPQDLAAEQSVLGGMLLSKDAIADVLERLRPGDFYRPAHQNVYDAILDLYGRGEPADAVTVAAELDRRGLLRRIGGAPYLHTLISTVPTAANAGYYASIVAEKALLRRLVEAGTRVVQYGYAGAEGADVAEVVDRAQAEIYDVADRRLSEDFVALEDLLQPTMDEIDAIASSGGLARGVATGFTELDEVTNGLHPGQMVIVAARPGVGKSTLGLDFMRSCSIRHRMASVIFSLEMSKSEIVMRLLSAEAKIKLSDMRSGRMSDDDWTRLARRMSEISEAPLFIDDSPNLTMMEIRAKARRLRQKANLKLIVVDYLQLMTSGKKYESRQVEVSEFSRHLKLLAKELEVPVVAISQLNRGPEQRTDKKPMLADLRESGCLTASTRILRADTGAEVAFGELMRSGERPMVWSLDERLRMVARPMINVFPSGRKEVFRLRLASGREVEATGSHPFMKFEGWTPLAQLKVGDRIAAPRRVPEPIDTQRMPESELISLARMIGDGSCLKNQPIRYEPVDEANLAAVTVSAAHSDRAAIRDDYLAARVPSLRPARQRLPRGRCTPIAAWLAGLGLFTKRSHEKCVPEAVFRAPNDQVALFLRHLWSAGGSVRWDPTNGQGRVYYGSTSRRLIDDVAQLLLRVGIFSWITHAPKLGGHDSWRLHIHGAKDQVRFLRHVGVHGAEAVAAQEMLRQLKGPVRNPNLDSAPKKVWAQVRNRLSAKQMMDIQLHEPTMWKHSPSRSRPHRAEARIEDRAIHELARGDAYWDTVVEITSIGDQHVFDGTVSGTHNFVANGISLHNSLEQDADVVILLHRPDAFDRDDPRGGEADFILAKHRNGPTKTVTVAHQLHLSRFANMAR
# Format: cell-based
# Details: E. coli, peptide in chicken α-spectrin loop on pEA825 (wild type Mtu dnaB), 37° C., 1 mM IPTG for 3 hours, crude cell extracts, anti-T7 tag immuno-staining
row,Substance,protein splicing of the Mtu DnaB intein (detection of Mtu DnaB protein splicing products)
1,PTARTYE [pEA816],selected for inhibition of splicing
2,RPAPRPL [pEA815],selected for inhibition of splicing
3,"DLPMVEE [pEA818rev, reference compound]",occurred as efficiently as with the pMtu DnaB clone
4,HPNPHPTLSGQR [pEA818],selected for inhibition of splicing
5,PTRPTAPPLNFS [pEA817],selected for inhibition of splicing
6,TVQSTKR [pEA814],selected for inhibition of splicing
